Results published in publication PMC3527473, “The C-Terminus of ClpC1 of Mycobacterium tuberculosis Is Crucial for Its Oligomerization and Function” (PLoS ONE, 2012).

Target: the molecule itself
Assay: SEC; Superdex-200 (1×30 cm) in buffer A (50 mM Tris-HCl pH 7.6, 100 mM KCl, 5 mM DTT, 10% glycerol, 0.01% Triton X-100) with 15 mM ATP and 10 mM MgCl2; protein pre-incubated with 15 mM ATP and 10 mM MgCl2 for 30 min at 25°C; monomer to hexamer; fractions checked by SDS-PAGE

B1: ClpC1-Δ3 (N-terminal truncated mutant, both N-terminal domains deleted) (domain or fragment)
chain: REGEGVAAQVLVKLGAELTRVRQQVIQLLSGYQGKEAAEAGTGGRGGESGSPSTSLVLDQFGRNLTAAAMEGKLDPVIGREKEIERVMQVLSRRTKNNPVLIGEPGVGKTAVVEGLAQAIVHGEVPETLKDKQLYTLDLGSLVAGSRYRGDFEERLKKVLKEINTRGDIILFIDELHTLVGAGAAEGAIDAASILKPKLARGELQTIGATTLDEYRKYIEKDAALERRFQPVQVGEPTVEHTIEILKGLRDRYEAHHRVSITDAAMVAAATLADRYINDRFLPDKAIDLIDEAGARMRIRRMTAPPDLREFDEKIAEARREKESAIDAQDFEKAASLRDREKTLVAQRAEREKQWRSGDLDVVAEVDDEQIAEVLGNWTGIPVFKLTEAETTRLLRMEEELHKRIIGQEDAVKAVSKAIRRTRAGLKDPKRPSGSFIFAGPSGVGKTELSKALANFLFGDDDALIQIDMGEFHDRFTASRLFGAPPGYVGYEEGGQLTEKVRRKPFSVVLFDEIEKAHQEIYNSLLQVLEDGRLTDGQGRTVDFKNTVLIFTSNLGTSDISKPVGLGFSKGGGENDYERMKQKVNDELKKHFRPEFLNRIDDIIVFHQLTREEIIRMVDLMISRVAGQLKSKDMALVLTDAAKALLAKRGFDPVLGARPLRRTIQREIEDQLSEKILFEEVGPGQVVTVDVDNWDGEGPGEDAVFTFTGTRKPPAEPDLAKAGAHSAGGPEPAAR
Q: Does B1 bind?
A: binds
